We go through 2 substances from article PMC11316058.

The target in the experiment is Hsp90α (N-terminally His-tagged, human) (human) (UniProt P07900). Description: ITC; Ahsa1 or Ahsa1^Δ20 (200-300 µM) in the syringe injected into Hsp90-α (30 µM) in the cell; 25 °C; 30 mM Tris pH 7.5, 20 mM KCl, 10% glycerol, 1 mM TCEP; two-site-binding model; three independent experiments. On the technique in general: ITC needs no label: the signal is the heat of the interaction.

In the case of “Ahsa1^Δ20 (C-terminal 6xHis) (from UniProt O95433 21-338) (domain or fragment)”, the Kd – broadly, the concentration at which binding is half-saturated – is 3200 nM.

In the case of “full-length Ahsa1 (C-terminal 6xHis) (from UniProt O95433 1-338) (natural protein)”, the Kd came out at 1730 nM.
